Assay results reported in patent publication US20200140551A1 (GlaxoSmithKline, published 2020).

Legend:
[1] = target: T1, human FcγR IIa R131 (human, UniProt P12318 36-218, limits assumed); experiment: affinity to human Fcγ receptors; method not described
T1 sequence (looked up): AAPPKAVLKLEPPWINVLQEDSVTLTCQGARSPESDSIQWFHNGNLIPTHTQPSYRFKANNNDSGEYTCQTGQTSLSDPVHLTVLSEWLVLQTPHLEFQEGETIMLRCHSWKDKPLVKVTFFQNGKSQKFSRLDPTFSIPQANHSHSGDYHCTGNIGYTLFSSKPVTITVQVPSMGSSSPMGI

[2] = target: T2, human FcγR IIb (human, UniProt P31994 46-217, limits assumed); experiment: as above
T2 sequence (looked up): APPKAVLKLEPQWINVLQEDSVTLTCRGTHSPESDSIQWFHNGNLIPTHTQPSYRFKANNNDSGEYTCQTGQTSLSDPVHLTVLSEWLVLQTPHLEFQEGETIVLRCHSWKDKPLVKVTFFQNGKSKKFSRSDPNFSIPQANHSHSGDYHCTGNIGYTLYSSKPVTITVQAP

[3] = target: T3, human ICOS on human T cells (human, UniProt Q9Y6W8 21-167); experiment: flow cytometry, activated human CD4 T cells, FITC MFI, donor 1124F36
T3 construct: endogenous receptor on primary cells; also called ICOS on CD4+ and CD8+ T cells of healthy human donors
T3 sequence: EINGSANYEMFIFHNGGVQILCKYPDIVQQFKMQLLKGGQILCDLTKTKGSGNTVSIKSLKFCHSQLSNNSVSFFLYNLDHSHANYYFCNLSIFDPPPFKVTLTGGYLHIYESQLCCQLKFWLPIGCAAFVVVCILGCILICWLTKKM
Protocol: (§1) Binding of H2L5 hIgG4PE was assessed in both naive and activated CD3+ T cells.
(§2) Either naive and/or activated CD3+ T cells were re-suspended in PBS with 0.1% BSA (FACS Buffer) containing Human FcR Blocking Solution at 2×10⁶ cells/mL (5 μl FcR Blocking Solution+[…] FACS Buffer per 1 mL). At a concentration of 2×10⁵ cells/well, 100 μl cells were placed into 2 mL 96 well Assay Blocks and incubated at room temperature for 15 minutes. During the incubation, a titration of the binding antibodies, anti-ICOS (H2L5 hIgG4PE) or IgG4 Isotype Control antibody was prepared as a 2× concentration. […] Following the binding incubation, cells were washed twice in 1 mL of FACS buffer, centrifuging at 400×g for 5 minutes at room temperature.
(§3) Data acquisition and compensation were performed on BD FACS instruments, LSR Fortessa X-20 or FACS Canto II using BD Diva (ver. 8.0) software. Data analysis employed Flow Jo software (ver.10.0.8r1). Results are reported as both MFI (Median Fluorescence Intensity) and Percent of cells positive for human IgG kappa light chain FITC staining out of the total live cells or appropriate parent population. EC50s were determined using Graphpad Prism 5 software (ver. 5.04) with non-linear regression of transformed data (X=(log(X)) using a variable slope with 4 parameters (log(Agonist) vs. response—Variable slope).

[4] = target: T3, human ICOS on human T cells; experiment: flow cytometry, activated human CD4 T cells, FITC MFI, donor 1149M52
Protocol: as §1, §2, §3

[5] = target: T3, human ICOS on human T cells; experiment: flow cytometry, activated human CD4 T cells, FITC MFI, donor 1173F42
Protocol: as §2, §3

[6] = target: T3, human ICOS on human T cells; experiment: flow cytometry, activated human CD8 T cells, FITC MFI, donor 1149M52
Protocol: as §1, §2, §3

[7] = target: T3, human ICOS on human T cells; experiment: flow cytometry, activated human CD8 T cells, FITC MFI, donor 1173F42
Protocol: as §2, §3

[8] = target: T4, human FcγR IIa H131 (human, UniProt P12318 36-218, limits assumed); experiment: affinity to human Fcγ receptors (Table 6; NB = no binding); method not described
T4 sequence (looked up): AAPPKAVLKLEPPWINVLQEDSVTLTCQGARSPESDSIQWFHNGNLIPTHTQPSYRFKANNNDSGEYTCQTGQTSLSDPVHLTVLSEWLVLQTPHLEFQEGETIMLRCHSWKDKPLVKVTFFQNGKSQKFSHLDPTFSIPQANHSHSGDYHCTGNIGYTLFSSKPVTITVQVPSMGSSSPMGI

[9] = target: T5, human FcγR IIIa V158 (human, UniProt P08637 17-208); experiment: as above
T5 construct: allotype with Val at position 158 as printed

[10] = target: T6, human FcγR IIIa F158 (human, UniProt P08637 17-208); experiment: as above
T6 construct: allotype with Phe at position 158 as printed

[11] = target: T3, human ICOS on human T cells; experiment: flow cytometry, activated human CD4 T cells, percent FITC positive, donor 1141F45
Protocol: as §2, §3

[12] = target: T3, human ICOS on human T cells; experiment: flow cytometry, activated human CD4 T cells, percent FITC positive, donor 2100M39
Protocol: as §2, §3

[13] = target: T3, human ICOS on human T cells; experiment: flow cytometry, activated human CD8 T cells, percent FITC positive, donor 1124F36
Protocol: as §1, §2, §3

[14] = target: T3, human ICOS on human T cells; experiment: flow cytometry, activated human CD8 T cells, percent FITC positive, mean of donors
Protocol: as §2, §3

[15] = target: T3, human ICOS on human T cells; experiment: flow cytometry, activated human CD8 T cells, percent FITC positive, median of donors
Protocol: as §1, §2, §3

[16] = target: T7, human ICOS (human, UniProt Q9Y6W8 21-140, limits assumed); experiment: MSD competition assay: inhibition of ICOS-L binding to ICOS by titrated antibody, bar chart in raw luminescence units
T7 sequence: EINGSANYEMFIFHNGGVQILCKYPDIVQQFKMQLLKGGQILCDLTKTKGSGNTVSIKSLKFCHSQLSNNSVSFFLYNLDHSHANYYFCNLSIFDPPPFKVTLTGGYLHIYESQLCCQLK

T5 sequence (P08637 17-208 F176V limits assumed): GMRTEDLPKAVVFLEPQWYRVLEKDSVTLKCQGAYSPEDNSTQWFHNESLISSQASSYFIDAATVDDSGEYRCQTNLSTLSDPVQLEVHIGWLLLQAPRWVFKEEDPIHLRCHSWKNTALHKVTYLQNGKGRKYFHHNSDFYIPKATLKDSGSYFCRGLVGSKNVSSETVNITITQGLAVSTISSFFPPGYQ
T6 sequence (P08637 17-208 limits assumed): as the sequence (P08637 17-208 F176V limits assumed) above, with V160F counted along it

Kd [1]: 2500 nM | Kd [2]: 1470 nM | EC50 [3]: 0.628 µg/mL | EC50 [4]: 1.31 µg/mL | EC50 [5]: 0.636 µg/mL | EC50 [6]: 0.74 µg/mL | EC50 [7]: 0.27 µg/mL | binding result [8]: no binding | binding result [9]: no binding | binding result [10]: no binding | EC50 [11]: 0.965 µg/mL | EC50 [12]: 0.814 µg/mL | EC50 [13]: 0.619 µg/mL | EC50 [14]: 0.692 µg/mL | EC50 [15]: 0.583 µg/mL | IC50 (read off the curve) [16]: ~2 µg/mL
B1: H2L5 hIgG4PE (antibody)
heavy: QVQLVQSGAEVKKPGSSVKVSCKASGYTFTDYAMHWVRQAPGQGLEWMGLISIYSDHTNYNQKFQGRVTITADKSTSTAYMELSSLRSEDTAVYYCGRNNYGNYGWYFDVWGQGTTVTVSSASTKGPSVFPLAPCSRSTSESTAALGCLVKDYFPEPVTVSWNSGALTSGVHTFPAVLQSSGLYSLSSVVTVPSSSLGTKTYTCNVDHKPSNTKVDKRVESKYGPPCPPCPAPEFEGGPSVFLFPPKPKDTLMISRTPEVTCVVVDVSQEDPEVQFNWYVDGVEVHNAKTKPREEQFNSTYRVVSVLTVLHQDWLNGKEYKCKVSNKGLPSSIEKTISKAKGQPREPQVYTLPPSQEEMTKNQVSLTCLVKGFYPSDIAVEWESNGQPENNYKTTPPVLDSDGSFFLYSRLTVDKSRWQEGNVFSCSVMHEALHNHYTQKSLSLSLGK
light: EIVLTQSPATLSLSPGERATLSCSASSSVSYMHWYQQKPGQAPRLLIYDTSKLASGIPARFSGSGSGTDYTLTISSLEPEDFAVYYCFQGSGYPYTFGQGTKLEIKRTVAAPSVFIFPPSDEQLKSGTASVVCLLNNFYPREAKVQWKVDNALQSGNSQESVTEQDSKDSTYSLSSTLTLSKADYEKHKVYACEVTHQGLSSPVTKSFNRGEC
notes: also called 422 H2L5 hIgG4PE; H2L5 IgG4PE; copies: 2 + 2
